Biological target: Russell's viper venom factor V activator (Russell's viper, Natural, unmodified enzyme purified from Indian Russell's viper venom. The isoform (alpha or gamma) is not stated; gamma is assumed because the paper models RVV-V with PDB 3S9C. The candidate entry is)
Assay: SPR; Biacore T200; RVV-V immobilised on a CM5 chip by amine coupling (3000 RU); peptides flowed over at 62.5 uM to 1 mM in PBS, 30 ul/min; association 120 s, dissociation 300 s; regeneration 10 mM glycine pH 2.5; two-state binding model
Conditions: both partners purified

B1: Peptide II (factor V cleavage site II, Lys1008-Pro1022) (peptide)
peptide: KHTHHAPLSPRTFHP
notes: also called site II peptide; source: synthetic peptide; bought: Genei
Work on B1 yielded a Kd of 2780 µM.
